In publication PMC10238197, “Deafness‐Associated ADGRV1 Mutation Impairs USH2A Stability through Improper Phosphorylation of WHRN and WDSUB1 Recruitment” (Advanced Science, 2023) one finds ratio to parent data, which are given here for six variants.

B1: Flag-WHRN (wild type) [mouse] / GFP-WDSUB1 (WD repeat, SAM, and U-box domain-containing protein 1) [mouse] (parent)
chain 1: MNAQLDGLSVSSSSTGSLGSAAAAAGGGGGAGLRLLSANVRQLHQALTALLSEPEREQFTHCLNAYHARRNVFDLVRTLRVLLDSPVKRRLLPMLRLVIPRSDQLLFDQYTAEGLYLPATTPYRQPAWAAPDGAGPGEVRLVSLRRAKAHEGLGFSIRGGSEHGVGIYVSLVEPGSLAEKEGLRVGDQILRVNDKSLARVTHAEAVKALKGSKKLVLSVYSAGRIPGGYVTNHIYTWVDPQGRSTSPPSSLPQPHGSTLRQREDDRRSTLHLLQSGDEKKVNLVLGDGRSLGLTIRGGAEYGLGIYITGVDPGSEAESSGLKVGDQILEVNGRSFLNILHDEAVKLLKSSRHLILTVKDVGRLPHARTTVDQTKWIASSRIGESVANSAGFPGDHTEEGTSKPGFYKGPAGSQVTLSSLGNQTRALLDDQARHLLTEQERATMMYYLAQYRGGTISVEAMVMALFELLNTHAKFSLLSEVRSIISPQDLDRFDHLVLRREIESMKARQPPGPGVGDTYSMVSYSDTGSSTGSHGTSTTVSSARERLLWLIDLMENTLDLEGTGETTQGSTNALPDVSVDDVKSPSEDLPGIKPPPPPPPLAQGHDRLLGQPRKPGREDPAPLSSAAHSGIVFSAPRNRSPPPGTAPTPGPSSAQDSPSSPIYASISHANPSSRKPLDTHLALVNQHPIGPFPRVQSPPHLKSPPAETPGAGACLPPPSPSEHPDAVGANQHFVLVEVHRPDSEPDVNEVRALPQTRTASTLSQLSDSGQTLSEDSGVDAGETEASTSGRGRQTASAKNKNGKEQPRTERTAEGANKPPGLLEPTSTLVRVRKSAATLGIAIEGGANTRQPLPRIVTIQRGGSAHNCGQLKVGHVILEVNGQTLRGKEHKEAARIIAEAFKTKERDYIDFLVTEFNVML
chain 2: MVRLIHTLADHGDDVSCCAFSAALLATCSLDKTIRLYSLSDFAELPYSPLKFHTYAVHCCCFSPSGHVLASCSTDGTTVLWSSHSGHTLTVLEQPGGSPVRVCCFSPDSAYLASGAADGSIALWNAQTYKLYRCGSVKDSSLVACAFSPDGGLFVTGSSGGDLTVWDDRMRCLHSEKAHDLGITCCSFSSQPLSGGEGLQSYQLASCGQDCEIKLWAVTITRVLGFELKYKSTLSGHCAPVLACAFSHDGKMLASGSVDKSVIIHGIGPQSVLHTLTQHTRYVTTCAFAPNTLLLATGSMDKTVNIWQFDLETPCQGSMNDPLKHFTEEWSEEDVSVWLRAQGLEDLVGIFRANNIDGKELLHLTKESLAGDLKIESLGLRSKVLRSIEELRAKMDSLSSGIPDEFICPITRELMKDPVIASDGYSYEREAMESWIHKKKRTSPMTNLALPSLVLTPNRTLKMAINRWLETHEK

The variants in this assay derive from B1. The experiment in a line: co-immunoprecipitation (band intensity quantified). The conditions noted are these: with GFP-WDSUB1 (WD repeat, SAM, and U-box domain-containing protein 1) [mouse]; HEK293 cells; n = 3; parent: 1; read off a plot.
In the case of chain 1 S384E, the ratio to parent was 1.

For chain 1 S37E, the ratio to parent stood at 1. The figure for chain 1 S85E is 1. The figure for chain 1 S156E S246E is 2.6; for chain 1 S156E it is 1.8. For chain 1 S246E the value was 2.1.
